B1: TPR t1 (parent)
chain: GACCAAUCUGCCCUCAGAGCUCGAGAACAUCUUCGGAUGCAGAGGAGGCAGGCUUCGGUGGCGCGAUAGCGCCAACGUCCUCAACCUCCAAUGCAUCCCACCACAUGAUGAUGCCUGAAGAGCCUUGGUUUUUUG

Experimental findings from the RNAGym collection of RNA variant scans (doi:10.1073/pnas.2313332121) are described below.

The variants in the data set derive from B1. As to the kind of experiment: polymerase ribozyme fitness, log enrichment relative to wild type (log ratio); higher = more active; in vitro selection for triplet polymerase activity. In a few lines: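 PCR was used to build mutant libraries for each subunit of a heterodimeric triplet polymerase ribozyme, which were then transcribed. A single in vitro selection round, in triplicate, used a frozen incubation at −7 °C and recovered extended constructs by gel excision, streptavidin beads and RT-PCR. Fitness is the logarithm of genotype enrichment relative to wild-type enrichment, averaged over replicates with inverse-variance weights. The logarithm is base 2, and after Illumina sequencing only genotypes with ≥10 input reads and ≥1 read per output were kept.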
Turning to C11U, the “polymerase ribozyme fitness (log ratio)” value was -0.381. For U54C C97G C123U, the “polymerase ribozyme fitness (log ratio)” value was -2.86. With C12A C70U, the “polymerase ribozyme fitness (log ratio)” value is -0.454.

With C56U C98A G120U, the “polymerase ribozyme fitness (log ratio)” value was -4.12.

Turning to C11A G17A C124A G128A, the “polymerase ribozyme fitness (log ratio)” value was -5.02. A5C G107A: the “polymerase ribozyme fitness (log ratio)” value is -5.67. Consider C8G C28A C72A, for which the “polymerase ribozyme fitness (log ratio)” value is -4.41.

In the case of C12G G51C G71A, the “polymerase ribozyme fitness (log ratio)” value is -6.1. Turning to C34A G77U C98A, the “polymerase ribozyme fitness (log ratio)” value was -2.63. In the case of A50G G110U, the “polymerase ribozyme fitness (log ratio)” value is -0.639.

Consider A46U C64U C101U U132C, for which the “polymerase ribozyme fitness (log ratio)” value was -1.55. With G19U G45C A91C A111C, the “polymerase ribozyme fitness (log ratio)” value was -3.35. The result for C13U C15G A18U A66U reads -5.7; that for C13U G51A U55A C79G C89A, -5.95; that for C8G C28G C97A U106A C115U U133G, -5.09. As to A26U G69U, the “polymerase ribozyme fitness (log ratio)” value was -1.44. Take G39U G117C: the “polymerase ribozyme fitness (log ratio)” value is -4.79. For the variant C8G U14C C79U U87A U112A, the “polymerase ribozyme fitness (log ratio)” value is 2.12. The result for C62G G117A U129G reads -6; that for C13U G128C, -1.81; that for G77U C79U U106C, -0.595.

For the variant A24G C114G, the “polymerase ribozyme fitness (log ratio)” value was -3.83. The result for U9A U116C reads 0.0652; that for C12U C28A C40U C73U, -4.89. For the variant G45U U116G, the “polymerase ribozyme fitness (log ratio)” value was -3.76.

As for C4A G10A C53G G60U C70U A74U C123A U131C, the “polymerase ribozyme fitness (log ratio)” value was -1.36.

For the variant C13U A105U C115A A121U, the “polymerase ribozyme fitness (log ratio)” value worked out at 0.733. Regarding A6G C56G G69A C79A, the “polymerase ribozyme fitness (log ratio)” value is -5.03.

On to A83C U106A, for which the “polymerase ribozyme fitness (log ratio)” value stood at 0.162. For the variant G71A C98G, the “polymerase ribozyme fitness (log ratio)” value was -6.1. In the case of C70A C82A, the “polymerase ribozyme fitness (log ratio)” value was -1.54. The result for C12A C72A C99A G120U G128U reads -7.62; that for U21C G63A, -0.609. For the variant A46G C86G, the “polymerase ribozyme fitness (log ratio)” value was -1.96. As for C22G U78G, the “polymerase ribozyme fitness (log ratio)” value was -4.47. The result for G60C C79G G122A reads -2.36.

On to U81C C82A, for which the “polymerase ribozyme fitness (log ratio)” value was -1.8. Take A18C G19U G48A G58C C62G C124A: the “polymerase ribozyme fitness (log ratio)” value is -5.33.

On to U9G G39A G57A C114G G117A, for which the “polymerase ribozyme fitness (log ratio)” value was -6.32. For U9A G61A, the “polymerase ribozyme fitness (log ratio)” value came out at 0.705. For the variant C15G G17U C40U, the “polymerase ribozyme fitness (log ratio)” value was -4.85. For C22A C72A C73A, the “polymerase ribozyme fitness (log ratio)” value was -5.32.

For A29G G36A G69A G71U C104U, the “polymerase ribozyme fitness (log ratio)” value was -6.16. For C15A C49G C98U, the “polymerase ribozyme fitness (log ratio)” value is -3.16. The result for A2U C11G C28U G61A reads -2.82; that for C3U G17U C64U, -3.03; that for C22U A43C C123G, -4.32. With G44A A90G C104U, the “polymerase ribozyme fitness (log ratio)” value was -0.158. Consider G48U U59A U78G U116A, for which the “polymerase ribozyme fitness (log ratio)” value is -3.29. Take G42U U112A: the “polymerase ribozyme fitness (log ratio)” value is -0.57.

A2U A50G C73U U78A: the “polymerase ribozyme fitness (log ratio)” value is -3.42.

U78C C99A U106C: the “polymerase ribozyme fitness (log ratio)” value was -4.95.

A2U C94U C104U: the “polymerase ribozyme fitness (log ratio)” value is -2.44. On to C8A G19A A50G U54A A103C G120C, for which the “polymerase ribozyme fitness (log ratio)” value is -5.02. On to U14C A18G, for which the “polymerase ribozyme fitness (log ratio)” value is -4.78. In the case of C8A C28U G52U G117C C124A G128A U133A, the “polymerase ribozyme fitness (log ratio)” value was -6.69.

For C72U A105U, the “polymerase ribozyme fitness (log ratio)” value was -2.43. Consider G47C C102A, for which the “polymerase ribozyme fitness (log ratio)” value is -3.89.

Consider C104U U130G, for which the “polymerase ribozyme fitness (log ratio)” value was -0.0774.

Regarding G17A G128C, the “polymerase ribozyme fitness (log ratio)” value is -5.29.

In the case of A46U G52A U109C C124G, the “polymerase ribozyme fitness (log ratio)” value was -7.25. Turning to C49U G61U U81A C115G, the “polymerase ribozyme fitness (log ratio)” value was -2.05. Take G71C U87C: the “polymerase ribozyme fitness (log ratio)” value is -1.45. On to G19U G39U G93A U106C G120U, for which the “polymerase ribozyme fitness (log ratio)” value was -5.8. Turning to C8U G39U A66G G113C, the “polymerase ribozyme fitness (log ratio)” value was -4.22.

Consider C53A C124U U129G, for which the “polymerase ribozyme fitness (log ratio)” value was -0.384. With A84G U116G, the “polymerase ribozyme fitness (log ratio)” value is -2.89. Regarding C62U U109A G117U A119C, the “polymerase ribozyme fitness (log ratio)” value is -7.11. The result for C12G G47U reads -1.82; that for C20U U132C, -1.93; that for A6G G44C U112C, 0.311. With C13U U14G C80U C115A, the “polymerase ribozyme fitness (log ratio)” value was -3.73.

In the case of G71A U92G, the “polymerase ribozyme fitness (log ratio)” value is -3.98. Regarding G71A U92C, the “polymerase ribozyme fitness (log ratio)” value was -2.39. In the case of C28U G45A C70U C124U, the “polymerase ribozyme fitness (log ratio)” value was -2.79. For the variant C40G G44C A74U U78G, the “polymerase ribozyme fitness (log ratio)” value was -2.88. Turning to A5U C13U A16G G69C U92G C123A U132A, the “polymerase ribozyme fitness (log ratio)” value is -2.65.

As for C15A G71U, the “polymerase ribozyme fitness (log ratio)” value is -2.58. As to C53U U78C C124G, the “polymerase ribozyme fitness (log ratio)” value came out at 1.86. Turning to G36U C88G A91U, the “polymerase ribozyme fitness (log ratio)” value was -6.86.

For C12A G127U, the “polymerase ribozyme fitness (log ratio)” value is -1.39. For the variant C34G G44U C62U G77A G110C, the “polymerase ribozyme fitness (log ratio)” value is -6.64.

As to C22G G69C G77U C101G C115U, the “polymerase ribozyme fitness (log ratio)” value was -5.91.
